doi:10.1101/303123 (bioRxiv, 2018)

T1: XcpVW binary complex (XcpV (28-129) with XcpW (28-203)) (P. aeruginosa, UniProt Q00516 28-129; Q00517 28-203)
T1 sequence (looked up) 1: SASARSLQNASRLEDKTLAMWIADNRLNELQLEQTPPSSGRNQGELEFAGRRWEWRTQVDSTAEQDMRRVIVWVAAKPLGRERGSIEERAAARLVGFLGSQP
T1 sequence (looked up) 2: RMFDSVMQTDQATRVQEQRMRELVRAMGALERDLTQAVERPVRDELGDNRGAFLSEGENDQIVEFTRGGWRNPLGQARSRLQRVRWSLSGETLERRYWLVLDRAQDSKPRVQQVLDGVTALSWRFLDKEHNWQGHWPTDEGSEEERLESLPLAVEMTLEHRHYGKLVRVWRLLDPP

T2: XcpX (29-313), soluble form of the minor pseudopilin XcpX (P. aeruginosa, UniProt Q00518 29-313)
T2 sequence (looked up): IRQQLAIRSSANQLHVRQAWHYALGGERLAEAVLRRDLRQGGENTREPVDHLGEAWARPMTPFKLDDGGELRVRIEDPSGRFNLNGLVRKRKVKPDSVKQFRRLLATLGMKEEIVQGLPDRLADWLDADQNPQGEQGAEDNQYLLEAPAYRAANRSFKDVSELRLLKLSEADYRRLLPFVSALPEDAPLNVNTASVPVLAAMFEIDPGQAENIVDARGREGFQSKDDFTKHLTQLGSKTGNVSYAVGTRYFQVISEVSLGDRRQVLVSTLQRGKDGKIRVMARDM

B1: XcpU (29-172), soluble form of the minor pseudopilin XcpU (domain or fragment, P. aeruginosa, UniProt Q00515 29-172, looked up)
chain: STGFASTSRELDSEAERLAGLIGVLTDEAVLDNREYGLRLERDAYQVLRYDEAKARWLPVARDSHRLPEWAELTFELDGQPLVLAGSKGEKEQKKGTDQPQLLILSSGELSPFRLRLAERGPEGRALSLSSDGFRLPRVEVARR
B2: XcpV (28-129), soluble form of the minor pseudopilin XcpV (domain or fragment, P. aeruginosa, UniProt Q00516 28-129, looked up)
chain: SASARSLQNASRLEDKTLAMWIADNRLNELQLEQTPPSSGRNQGELEFAGRRWEWRTQVDSTAEQDMRRVIVWVAAKPLGRERGSIEERAAARLVGFLGSQP

Tests used:
[1] = target: T1, XcpVW binary complex (XcpV (28-129) …); assay: SEC + AUC
[2] = target: T2, XcpX (29-313), soluble form of the …; assay: crystal structure

Binder | binding result [1] | binding result [2]
B1 | binds | 
B2 |  | binds
